Measurements published in patent US20230167458A1, “FORSKOLIN-INDUCIBLE PROMOTERS AND HYPOXIA-INDUCIBLE PROMOTERS” (ASKLEPIOS BIOPHARMACEUTICAL, INC., priority 2020, published 2023).
Entries after “also recorded” stand apart in the source; their conditions may differ.

Key:
[1] = test system: Huh7 human liver cell line; test: Luciferase expression from forskolin-inducible promoters, transient transfection of PM-RQ plasmid in Huh7; format: cell-based; set-up: luciferase activity following induction / fold induction of promoter (luciferase activity): dose or concentration left out as unconfirmed
Procedure: Luciferase readouts were normalised to β-galactosidase to produce normalised relative luminometer units (RLUs). β-galactosidase containing pcDNA6 plasmid was used as internal control for transfection efficiency (Thermofisher, V22020). β-galactosidase activity was measured as per manufacturer's instructions (Mammalian βGalactosidase Assay Kit, 75707/75710, Thermo Scientific) using 25 μl of lysate. 25 μl of lysate was transferred into a microplate well and mixed with 25 μl of β-galactosidase Assay Reagent, equilibrated to room temperature. The mixture was incubated at 37° C. for 30 min and absorbance measured at 405 nm.
The forskolin-inducible promoters were initially used to drive expression of luciferase in the Huh7 human liver cell line and the C2C12 […]. The promoter constructs were used to drive expression of luciferase in the PM-RQ plasmid. The tested promoters were synthesised directly upstream of the ATG of PM-RQ plasmid.
• Huh7 cells which are a human liver cell line • DPBS: without CaCl2, without MgCl2 (Gibco, 14190-094) • DMEM (Sigma, D6546) • FBS (Sigma, F9665) • Pen-Strep (Sigma, P4333) • Promega Fugene-HD (E2311) • Forskolin (Sigma, F6886) • NKH477 (Sigma, N3290) • LARII (Dual Luciferase Reporter 1000 assay system, Promega, E1980) • 48 well plates flat bottom (353230, Corning) • Trypsin-EDTA (25200-056, Gibco) • T25 & T75 flask (353108, 353136, Corning) • 15 ml Falcon tubes (430791, Corning) • Stripettes 5 ml, 10 ml and 25 ml (4101,4051,4251, Corning)
Cells were seeded onto a 48 well plate at a density of 25,000 cells/300 μl
• On the day of transfection, DNA to be transfected was diluted to a 100 ng/μl stock solution. DNA to be transfected was the RTV-017, RTV-019 or CMV-IE promoter driving luciferase in the PM-RQ plasmid. • Per 48 well transfection, 45 ng of DNA was mixed with 4.1 μl of Optimem medium. • 0.5 μl of […] was mixed with 4 μl of Optimem medium. • These 2 solutions were mixed and incubated at room temperature for 15 minutes. • The final solution was then added to the well drop wise. • 3 hrs after transfection the inducer was added to the appropriate wells at the indicated concentration. Inducer was forskolin at […].
• 24 hrs after induction, the luciferase activity was measured as described below.
• Luciferase activity was measured using LARII (Dual Luciferase Reporter 1000 assay system, Promega, E1980) • 24 hours after induction, the media was removed from the cells • The cells were washed once in 300 μl of DPBS. • Cells were lysed using 100 μl of passive lysis buffer and incubated with rocking for 15 minutes. • The cell debris was pelleted by centrifugation of the plate at max speed in a benchtop centrifuge for 1 min • For luciferase, 10 μl sample was transferred into white 96-well plate and luminescence measured by injection of 50 μl of LARII substrate
RTV-017 and RTV-019 were transiently transfected into the human liver cell line Huh7 (FIG. 2). RTV-019 was transiently transfected into the […] C2C12 (FIG. 3). The activity of the promoters was assessed using luciferase activity. The luciferase activity was measured with and without the presence of […] forskolin.

[2] = test system: Huh7 human liver cell line; test: Luciferase expression from promoters in pAAV vector (with ITRs) in Huh7, forskolin or NKH477 induction; set-up: fold induction with forskolin: dose or concentration left out as unconfirmed
Procedure: The forskolin-inducible promoters RTV-017, RTV-019 and FORCYB1 were then used to drive expression of luciferase in a pAAV vector in the Huh7 human liver cell line. […] This experiment was performed to investigate the effect of the Inverted Terminal Repeats (ITRs) on the activity of the promoters.
The cells were seeded, transfected and induced as described above. Luciferase expression was measured as described above. In this experiment, the cells were induced by using 20 pM forskolin or 7.2 pM of the water soluble derivative NKH477.

HEK293-F = test: Luciferase time course under hypoxia, transiently transfected HEK293-F; format: cell-based, human; details: 5% oxygen, 3, 5 and 24 hrs
Procedure: The constructs were initially used to drive luciferase expression in HEK293-F and HEK293-T in hypoxia.
40 ml of cells were grown in a 250 ml vented Erlenmeyer flask (Sigma-Aldrich CLS431144) at 37° C., 20% O2, 8% CO2 with agitation at 100 rpm. Cells were seeded as described in the manufacturer's instructions (300,000 cells/ml). HEK293-F were obtained from Thermofisher, R79007.
One day before transfection, the cells were counted using a haemocytometer and split to 500,000 cells/ml.
On the day of transfection, the cells are seeded to 1,000,000 cells/ml in 500 μl of appropriate medium (Freestyle 293 expression medium, 12338002) in a 24 well plate. […] of DNA per well was then added to 10 μl of OptiMem medium (Thermofisher; 11058021) and incubated for 5 minutes at room temperature.
Concurrently, 0.625 μl of Max reagent (Thermofisher, 16447100) was made up to 10 μl by addition of OptiMem and incubated for 5 minutes at room temperature. After this incubation, both mixes were added to the same tube and incubated at room temperature for 25-30 minutes. […]
After transfection the cells were incubated for 24 hrs in normoxia conditions (20% oxygen) before being switched to a gas mix of 5% oxygen, 10% carbon dioxide and 85% nitrogen (hypoxia). […] Induction of the promoters was assessed by using luciferase activity after 3, 5 and 24 hrs in hypoxia.
Luciferase activity was measured using LARII (Dual Luciferase Reporter 1000 assay system, Promega, E1980).
Media was removed from the cells at the respective time point (0, 3, 5, 24 hrs after induction). […] 10 μl of supernatant was pipetted into white 96-well plate and luminescence measured by addition of 50 μl of LARII substrate.
β-galactosidase activity was measured as per manufacturer's instructions (Mammalian βGalactosidase Assay Kit, 75707/75710, Thermo Scientific) using 25 μl of lysate. […] The mixture was incubated at 37° C. for 30 min and absorbance measured at 405 nm.
Luciferase readouts were normalised to β-galactosidase to produce normalised relative luminometer units (RLUs).

B1: RTV-017: synthetic forskolin-inducible promoter, SEQ ID NO: 43; 8× AP1(1) TFBS and CMV-MP minimal promoter (nucleic acid)
DNA: TGAGTCAGATGATGCGTAGCTAGTAGTTGAGTCAGATGATGCGTAGCTAGTAGTTGAGTCAGATGATGCGTAGCTAGTAGTTGAGTCAGATGATGCGTAGCTAGTAGTTGAGTCAGATGATGCGTAGCTAGTAGTTGAGTCAGATGATGCGTAGCTAGTAGTTGAGTCAGATGATGCGTAGCTAGTAGTTGAGTCAGTAGTCGTATGCTGATGCGCAGTTAGCGTAGCTGAGGTACCGTCGACGATATCGGATCCAGGTCTATATAAGCAGAGCTCGTTTAGTGAACCGTCAGATCGCCTAGATACGCCATCCACGCTGTTTTGACCTCCATAGAAGATCGCCACC
modifications: Synp-RTV-017
notes: 8× AP1(1) TFBS and CMV-MP minimal promoter
luciferase activity without induction (background) ([1]; Huh7, before addition of forskolin): low background activity | luciferase activity following induction ([1]; Huh7, forskolin): high activity; also recorded: much higher activity | fold induction of promoter (luciferase activity) ([1]; Huh7 liver cells, PM-RQ plasmid, forskolin, 24 hrs after induction): 13 fold | fold induction with forskolin ([2]; Huh7): 44 fold | luciferase activity without induction (background) ([2]; Huh7): low background activity | fold induction with NKH477 ([2]; Huh7, 7.2 pM NKH477): 23 fold | luciferase activity following induction ([2]; Huh7, or 7.2 pM NKH477): high activity

B2: CMV minimal promoter: CMV minimal promoter, SEQ ID NO: 28; named as control in FIG. 13 legend (nucleic acid)
DNA: AGGTCTATATAAGCAGAGCTCGTTTAGTGAACCGTCAGATCGCCTAGATACGCCATCCACGCTGTTTTGACCTCCATAGAAGATCGCCACC
effect of switch to hypoxia on luciferase activity (HEK293-F): does not change
